Measured values from patent US20190367619A1 (ARGENX, published 2019).
Substitutions are numbered along the chain they refer to. Where two headings read alike, the source gives them in different places. Each block holds one molecule with its values, some of them ahead of it.

Key:
[1] = biological target: TEV-cleaved wild-type recombinant human galectin-10 (soluble, in Fab complexes, or as recombinant galectin-10 crystals / CLCs) (human) (UniProt Q05315); assay: cell-based or functional assay
[2] = biological target: human galectin-10-His (recombinant human galectin-10 with TEV-cleavable N-terminal His-tag) (human); assay: ELISA, scFv-hFc on coated galectin-10-His (0.2 ug/mL)
[3] = biological target: T1, human galectin-10-His (recombinant human galectin-10 with TEV-cleavable N-terminal His-tag) (human); assay: SPR Biacore T3000, scFv-hFc captured by anti-human Fc, galectin-10-His as analyte
T1 construct: SEC-MALLS: dimer in solution; also called Gal10-His; humanGal10-His
T1 chain: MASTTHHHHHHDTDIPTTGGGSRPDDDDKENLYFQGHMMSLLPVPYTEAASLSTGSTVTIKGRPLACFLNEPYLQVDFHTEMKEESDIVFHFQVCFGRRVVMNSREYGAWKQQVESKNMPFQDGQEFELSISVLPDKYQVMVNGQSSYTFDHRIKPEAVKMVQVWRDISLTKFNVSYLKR
Method: (§1) In order to determine the binding properties (on-rate/off-rate) of the scFv-human Fc panel, their binding capacity to galectin-10 was analyzed on Biacore T3000. For this purpose, a capture approach was set up. A CM5 Chip was coated with polyclonal anti-human Fc at 8000 RU, then a fixed concentration of the scFv-human Fc panel (1.5 μg/mL), diluted in HBS-EP pH7.4, were captured to reach a binding signal around 150 RU. Finally, a serial dilution of galectin-10-His (serial dilution, 1 over 2 from 5 μg/mL, 6 points of dilution) diluted in HBS-EP pH7.4 was injected. Raw data were analyzed via BIA evaluation software with a blank subtraction (4-3). The kd/KD and Rmax of each scFv-human Fc for galectin-10-His was determined using the Fit Kinetics simultaneous ka/kd/Binding with mass transfer/Local Rmax on BIA evaluation software.

[4] = biological target: T1, human galectin-10-His (recombinant …); assay: ELISA, scFv-hFc on coated galectin-10-His (0.2 ug/mL)
Method: In a similar setup to that used during the initial screening, the relative binding properties of the 12 scFv-human Fc clones were analyzed by ELISA. Briefly, a Maxisorp plate was coated with galectin-10-His at 0.2 μg/mL and blocked with casein, before being incubated with a serial dilution of the scFv-human Fc fusion molecules. After several washing steps, detection of the bound scFv-human Fc was carried out with an anti-human Fc-HRP antibody. Absorbance was measured at 450 nm (reference at 620 nm) with Tecan instrument. Finally, the raw data (OD values) were plotted on GraphPad Prism 7.01. The EC50 value of each compound was calculated with a non-linear regression (log(agonist) vs. response Variable slope (four parameters)).

[5] = biological target: T1, human galectin-10-His (recombinant …); assay: SPR Biacore T3000, scFv-hFc captured by anti-human Fc, galectin-10-His as analyte
[6] = biological target: T2, cynomolgus galectin-10-His, YRT isoform (cynomolgus); assay: ELISA, VHH on coated cynomolgus YRT galectin-10-His (1 ug/mL)
T2 construct: not shown: His tag
T2 chain: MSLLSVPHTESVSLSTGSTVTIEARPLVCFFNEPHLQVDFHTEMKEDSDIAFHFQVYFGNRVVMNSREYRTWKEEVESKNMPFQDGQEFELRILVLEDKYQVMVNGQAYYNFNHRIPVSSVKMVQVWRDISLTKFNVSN

[7] = biological target: T3, cynomolgus galectin-10-His, WGS isoform (cynomolgus); assay: ELISA, VHH on coated cynomolgus WGS galectin-10-His (1 ug/mL)
T3 construct: not shown: His tag
T3 chain: T2 chain with E23K, A24G, F31L, Y69F, R70K, T71I, R92S

[8] = biological target: T1, human galectin-10-His (recombinant …); assay: Biacore capture approach (summary table), scFv-human Fc
Method: as §1

[9] = biological target: T4, TEV-cleaved wild-type recombinant human galectin-10 (soluble, in Fab complexes, or as recombinant galectin-10 … (human, UniProt Q05315 1-142)); assay: cell-based or functional assay
T4 sequence: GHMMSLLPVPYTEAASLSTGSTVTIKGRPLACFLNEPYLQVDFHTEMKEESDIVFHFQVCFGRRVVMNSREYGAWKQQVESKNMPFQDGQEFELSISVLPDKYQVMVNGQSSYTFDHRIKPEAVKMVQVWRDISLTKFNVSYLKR

[10] = biological target: T1, human galectin-10-His (recombinant …); assay: ELISA binding (summary table), scFv-human Fc
[11] = biological target: T4, TEV-cleaved wild-type recombinant human …; assay: cell-based or functional assay; remark: listed apart in the source
[12] = biological target: T4, TEV-cleaved wild-type recombinant human …; assay: cell-based or functional assay; remark: listed apart in the source

CLC formation (crystallization robot assay) [1]: 100%
Bmax (OD values) [2]: 0.018 OD
Molecule: Isotype control, scFv-human Fc (irrelevant scFv-human Fc) (Fc fusion)

Kd [3]: 0.711 nM
koff [3]: 0.124 s⁻¹
Bmax (OD values) [4]: 1.59 OD
EC50 [4]: 0.01 nM
Kd [5]: > 17 nM
B1: 6A11 scFv-human Fc (Fc fusion)
scFv: ELQLVESGGGLVQPGGSLRLSCSASGFTFGAYAMNWVRQAPGKGLEWVSGVNSGGGLTSYGESVKGRFTISRDNAKNTLYLQMNRLNPDDTAVYYCAKSKRGAVVAGTGDDYWGQGTQVTVSSGGGGSGGGGSGGGGSSSALTQPSAVSVSLGQTARITCQGGNFGRYYVSWYQQKPGQAPVLVIYKDSERPSGIPERFSGSSSGDTATLTISGAQAEDEADYYCQSGSSSDNAVFGGGTHLTVL
notes: about 100 kDa on SDS-PAGE; also called 6A11 ScFv-hFc; not shown: CH2-CH3 constant domains of human IgG1 (vector pUPEX50)

binding result [6]: no binding
binding result [7]: no binding
B2: VHH 1D06 (purified, Myc-His tagged) (VHH, not shown: small tags and cut ends)
VHH: QLQLVESGGGLVQPGGSLRLSCAASENSVSTYAMGWFRQAPGKEREFVAAITRAGGNTYNADSVKGRFTISRDNAENTIYLQMNSLKPEDTAVYSCAAGPRYSTISTMFPYWGQGTQVTVSS
notes: also called 1D6

Kd [8]: 0.9 nM
koff [8]: 0.00012 s⁻¹
Kd [3]: 0.918 nM
koff [3]: 0.000117 s⁻¹
Bmax (OD values) [4]: 2.9 OD
EC50 [4]: 0.02 nM
dissolution of in vitro grown Gal10 crystals (spinning disk confocal microscopy) [9]: ≤ 90 min
EC50 [10]: 0.02 nM
100% Solubilization of CLC (Conc uM) [11]: 4 µM
100% Inhibition of CLC formation (Conc uM) [12]: 1 µM
100% Solubilization of CLC (Conc uM) [12]: 4 µM
B3: 6F05 scFv-human Fc (Fc fusion)
scFv: QLQLVESGGGLVQPGGSLRLSCAASGFTFSSYAMSWVRQAPGKGLEWVSAINSGGGSTSYADSVKGRFTISRDNAKNTLYLQMNSLKPEDTAVYYCATPGDRLWYYRYDYWGQGTQVTVSSGGGGSGGGGSGGGGSQAGLTQPPSVSGTLGKAVTISCAGTSSDIGYGNYVSWYQQLPGTAPKLLIYKVSRRASGVPDRFSGSKSGNTASLSISGLQSEDEADYYCASYRYRNNVVFGGGTHLTVL
notes: about 100 kDa on SDS-PAGE; also called 6F5; 6F05 ScFv-hFc; not shown: CH2-CH3 constant domains of human IgG1 (vector pUPEX50)

Kd [3]: 2.96 nM
koff [3]: 0.0172 s⁻¹
Bmax (OD values) [4]: 1.56 OD
EC50 [4]: 0.48 nM
Kd [5]: > 17 nM
B4: 6F11 scFv-human Fc (Fc fusion)
scFv: QVQRQESGPGLVKPSQTLSVTCTVSGGSITTGPYSWSWIRQPPGKGLEWIGYIGYSGSTYYSPSLKSRTSISRDTSNNQFSLQLSSVTPEDTAVYYCARSRSSPTTFGMDYWGKGTLVTVSSGGGGSGGGGSGGGGSSSALTQPSAVSVSLGQTARITCQGGDFGRYYVAWYTQKPGQAPVLVIYQDSERPSGIPERFSGSSSGDTATLTISGAQAEDEAEYYCQSGISSDNIVFGGGTHLTVL
notes: about 100 kDa on SDS-PAGE; also called 6F11 ScFv-hFc; not shown: CH2-CH3 constant domains of human IgG1 (vector pUPEX50)
